Laboratory results from patent US20150344570A1 (published 2015).

T1: FcγRIIb extracellular domain with C-terminal His tag (human, UniProt P31994 43-217)
T1 construct: extracellular domain; Soluble receptor expressed in FreeStyle293 cells, used as analyte in Biacore; also called FcgRIIb; 2b; not shown: His tag attached to the C terminus
T1 sequence (looked up): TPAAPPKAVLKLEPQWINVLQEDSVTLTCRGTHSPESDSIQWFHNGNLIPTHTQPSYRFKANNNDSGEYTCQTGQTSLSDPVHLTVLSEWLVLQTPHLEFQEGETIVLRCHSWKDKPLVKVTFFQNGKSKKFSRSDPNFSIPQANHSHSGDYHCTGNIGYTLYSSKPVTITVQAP


Legend:
[1] = target: T2, FcγRIIIa extracellular domain with C-terminal His tag (human, UniProt P08637 17-208); assay: SPR (Biacore); He/Con_3a (FcγRIIIa) divided by He/Con_2b (FcγRIIb)
T2 construct: extracellular domain; also called FcgRIIIa; 3a; not shown: His tag attached to the C terminus

[2] = target: T1, FcγRIIb extracellular domain with …; assay: SPR (Biacore T100), antibody captured on antigen peptide chip, FcγR as analyte
Protocol: (§1) Analysis of interaction between objective antibody and the FcγR was carried out using Biacore T100 (GE Healthcare). HBS-EP+ (GE Healthcare) was used as the running buffer, and the measurement temperature was set to 25° C. Chips produced by immobilizing the antigen peptide by the amine coupling method to a Series S Sencor Chip CM5 (GE Healthcare), or alternatively, chips produced by allowing preliminarily biotinylated antigen peptides to interact with and immobilize onto a Series S Sensor Chip SA (certified) (GE Healthcare) were used. Antibodies of interest were captured onto an antigen peptide-immobilized chip, and allowed to interact to each FcγR diluted with running buffer. To regenerate and repeatedly use the chip, the antibodies captured on the chip were washed off by reacting 10 mM glycine-HCl, pH 1.5.

[3] = target: T2, FcγRIIIa extracellular domain with …; assay: as above
Protocol: as §1

FcγRIIIa = target: T3, FcγRIIIa (human, UniProt P08637 17-208); assay: SPR (Biacore), antibody captured on antigen-peptide chip, FcγR as analyte; binding of Ho Ab / binding of HoCon Ab GpH7-B3/GpL16-k0 x 100
T3 construct: extracellular domain; also called 3a; FcgRIIIa
Protocol: as §1

T2 sequence (P08637 17-208): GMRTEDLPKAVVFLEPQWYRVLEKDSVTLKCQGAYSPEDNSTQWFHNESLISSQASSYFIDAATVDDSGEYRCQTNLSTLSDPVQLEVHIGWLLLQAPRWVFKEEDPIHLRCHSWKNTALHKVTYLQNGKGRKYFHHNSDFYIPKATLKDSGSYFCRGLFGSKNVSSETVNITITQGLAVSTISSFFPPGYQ
T3 sequence (P08637 17-208): as above

| He_3a/2b (IIIa/IIb) [1] | He/Con_2b [2] | He/Con_3a [3] | Ho/Con_3a (FcγRIIIa) | Binder |
| --- | --- | --- | --- | --- |
| – | – | – | 119 relative to control = 100 | GpH7-B3 variant S324_01G/GpL16-k0 (Ho Ab) (antibody, human IgG1, kappa, Homodimerized anti-glypican-3 antibody; the alteration stands in both H chains) heavy: not shown light: DIVMTQSPLSLPVTPGEPASISCQASESLVHSNRNTYLHWYLQKPGQSPQLLIYKVSNRFSGVPDRFSGSGSGTDFTLKISRVEAEDVGVYYCSQNTHVPPTFGQGTKVEIERTVAAPSVFIFPPSDEQLKSGTASVVCLLNNFYPREAKVQWKVDNALQSGNSQESVTEQDSKDSTYSLSSTLTLSKADYEKHKVYACEVTHQGLSSPVTKSFNRGEC |
| 0.37 ratio | 57.2 relative binding, GpH7-A5/GpH7-B3/GpL16-k0 = 100 | 21.5 relative binding, GpH7-A5/GpH7-B3/GpL16-k0 = 100 | – | GpH7-A5/GpH7-B3 variant S267_20W/GpL16-k0 (antibody, human IgG1, kappa, Heterodimerized antibody (He Ab) with the mutation in only one H chain; also called He Ab S267W) heavy 1: not shown heavy 2: not shown light: DIVMTQSPLSLPVTPGEPASISCQASESLVHSNRNTYLHWYLQKPGQSPQLLIYKVSNRFSGVPDRFSGSGSGTDFTLKISRVEAEDVGVYYCSQNTHVPPTFGQGTKVEIERTVAAPSVFIFPPSDEQLKSGTASVVCLLNNFYPREAKVQWKVDNALQSGNSQESVTEQDSKDSTYSLSSTLTLSKADYEKHKVYACEVTHQGLSSPVTKSFNRGEC |
| 0.3 ratio | 218 relative binding, GpH7-A5/GpH7-B3/GpL16-k0 = 100 | 65 relative binding, GpH7-A5/GpH7-B3/GpL16-k0 = 100 | – | GpH7-A5/GpH7-B3 variant S267_19Q/GpL16-k0 (antibody, human IgG1, kappa, Heterodimerized antibody (He Ab) with the mutation in only one H chain; also called He Ab S267Q) heavy 1: not shown heavy 2: not shown light: DIVMTQSPLSLPVTPGEPASISCQASESLVHSNRNTYLHWYLQKPGQSPQLLIYKVSNRFSGVPDRFSGSGSGTDFTLKISRVEAEDVGVYYCSQNTHVPPTFGQGTKVEIERTVAAPSVFIFPPSDEQLKSGTASVVCLLNNFYPREAKVQWKVDNALQSGNSQESVTEQDSKDSTYSLSSTLTLSKADYEKHKVYACEVTHQGLSSPVTKSFNRGEC |

Second part, the binder before the results:

| Binder | He_3a/2b (IIIa/IIb) [1] | He/Con_2b [2] | He/Con_3a [3] | Ho/Con_3a (FcγRIIIa) |
| --- | --- | --- | --- | --- |
| GpH7-A5/GpH7-B3 variant S267_08L/GpL16-k0 (antibody, human IgG1, kappa, Heterodimerized antibody (He Ab) with the mutation in only one H chain; also called He Ab S267L) heavy 1: not shown heavy 2: not shown light: DIVMTQSPLSLPVTPGEPASISCQASESLVHSNRNTYLHWYLQKPGQSPQLLIYKVSNRFSGVPDRFSGSGSGTDFTLKISRVEAEDVGVYYCSQNTHVPPTFGQGTKVEIERTVAAPSVFIFPPSDEQLKSGTASVVCLLNNFYPREAKVQWKVDNALQSGNSQESVTEQDSKDSTYSLSSTLTLSKADYEKHKVYACEVTHQGLSSPVTKSFNRGEC | 0.18 ratio | 109 relative binding, GpH7-A5/GpH7-B3/GpL16-k0 = 100 | 19.5 relative binding, GpH7-A5/GpH7-B3/GpL16-k0 = 100 | – |
| GpH7-A5/GpH7-B3 variant S267_09D/GpL16-k0 (antibody, human IgG1, kappa, Heterodimerized antibody (He Ab) with the mutation in only one H chain; also called He Ab S267D) heavy 1: not shown heavy 2: not shown light: DIVMTQSPLSLPVTPGEPASISCQASESLVHSNRNTYLHWYLQKPGQSPQLLIYKVSNRFSGVPDRFSGSGSGTDFTLKISRVEAEDVGVYYCSQNTHVPPTFGQGTKVEIERTVAAPSVFIFPPSDEQLKSGTASVVCLLNNFYPREAKVQWKVDNALQSGNSQESVTEQDSKDSTYSLSSTLTLSKADYEKHKVYACEVTHQGLSSPVTKSFNRGEC | 0.58 ratio | 310 relative binding, GpH7-A5/GpH7-B3/GpL16-k0 = 100 | 181 relative binding, GpH7-A5/GpH7-B3/GpL16-k0 = 100 | – |
| GpH7-A5/GpH7-B3 variant H268_05P/GpL16-k0 (antibody, human IgG1, kappa, Heterodimerized antibody (He Ab) with the mutation in only one H chain; also called He Ab H268P) heavy 1: not shown heavy 2: not shown light: DIVMTQSPLSLPVTPGEPASISCQASESLVHSNRNTYLHWYLQKPGQSPQLLIYKVSNRFSGVPDRFSGSGSGTDFTLKISRVEAEDVGVYYCSQNTHVPPTFGQGTKVEIERTVAAPSVFIFPPSDEQLKSGTASVVCLLNNFYPREAKVQWKVDNALQSGNSQESVTEQDSKDSTYSLSSTLTLSKADYEKHKVYACEVTHQGLSSPVTKSFNRGEC | 0.66 ratio | 116 relative binding, GpH7-A5/GpH7-B3/GpL16-k0 = 100 | 76.4 relative binding, GpH7-A5/GpH7-B3/GpL16-k0 = 100 | – |
| GpH7-A5/GpH7-B3 variant H268_02A/GpL16-k0 (antibody, human IgG1, kappa, Heterodimerized antibody (He Ab) with the mutation in only one H chain; also called He Ab H268A) heavy 1: not shown heavy 2: not shown light: DIVMTQSPLSLPVTPGEPASISCQASESLVHSNRNTYLHWYLQKPGQSPQLLIYKVSNRFSGVPDRFSGSGSGTDFTLKISRVEAEDVGVYYCSQNTHVPPTFGQGTKVEIERTVAAPSVFIFPPSDEQLKSGTASVVCLLNNFYPREAKVQWKVDNALQSGNSQESVTEQDSKDSTYSLSSTLTLSKADYEKHKVYACEVTHQGLSSPVTKSFNRGEC | 0.73 ratio | 167 relative binding, GpH7-A5/GpH7-B3/GpL16-k0 = 100 | 122 relative binding, GpH7-A5/GpH7-B3/GpL16-k0 = 100 | – |
| GpH7-A5/GpH7-B3 variant S267_14T/GpL16-k0 (antibody, human IgG1, kappa, Heterodimerized antibody (He Ab) with the mutation in only one H chain; also called He Ab S267T) heavy 1: not shown heavy 2: not shown light: DIVMTQSPLSLPVTPGEPASISCQASESLVHSNRNTYLHWYLQKPGQSPQLLIYKVSNRFSGVPDRFSGSGSGTDFTLKISRVEAEDVGVYYCSQNTHVPPTFGQGTKVEIERTVAAPSVFIFPPSDEQLKSGTASVVCLLNNFYPREAKVQWKVDNALQSGNSQESVTEQDSKDSTYSLSSTLTLSKADYEKHKVYACEVTHQGLSSPVTKSFNRGEC | 0.44 ratio | 104 relative binding, GpH7-A5/GpH7-B3/GpL16-k0 = 100 | 45.6 relative binding, GpH7-A5/GpH7-B3/GpL16-k0 = 100 | – |
